± gives the standard error.
B1: library; numbered along this chain (parent)
chain: MATDAALRRLLRLHRTEIAVAVDSAFPLLHALADHDVVPEDKFQETLHLKEKEGCPQAFHALLSWLLTQDSTAILDFWRVLFKDYNLERYGRLQPILDSFPKDVDLSQPRKGRKPPAVPKALVPPPRLPTKRKASEEARAAAPAALTPRGTASPGSQLKAKPPKKPESSAEQQRLPLGNGIQTMSASVQRAVAMSSGDVPGARGAVEGILIQQVFESGGSKKCIQVGGEFYTPSKFEDSGSGKNKARSSSGPKPLVRAKGAQGAAPGGGEARLGQQGSVPAPLALPSDPQLHQKNEDECAVCRDGGELICCDGCPRAFHLACLSPPLREIPSGTWRCSSCLQATVQEVQPRAEEPRPQEPPVETPLPPGLRSAGEEVRGPPGEPLAGMDTTLVYKHLPAPPSAAPLPGLDSSALHPLLCVGPEGQQNLAPGARCGVCGDGTDVLRCTHCAAAFHWRCHFPAGTSRPGTGLRCRSCSGDVTPAPVEGVLAPSPARLAPGPAKDDTASHEPALHRDDLESLLSEHTFDGILQWAIQSMARPAAPFPS

Variants of: B1
Experiment: AIRE transcriptional activation functional score (insulin promoter-GFP; nonsense median 0, synonymous median 1) (normalised score); higher = higher AIRE activity (more reporter activation)
Details: with insulin promoter-GFP reporter in HEK293
Description: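 Deep mutational scan of full-length human AIRE (codon-optimized cDNA, DT-POPCode NNN libraries over three regions) integrated at a Bxb1 landing pad in HEK293 cells carrying an insulin core promoter-GFP reporter at a Flp-In site. Cells were sorted for the top 10% GFP about 14 days after transfection. Variant frequency log-ratios (select vs non-select, TileSeq) were rescaled so that the nonsense median is 0 and the synonymous median is 1, then averaged over biological replicates.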

Variant	AIRE transcriptional activation functional score
A141P	0.97 ± 0.31
A141E	1.49 ± 0.21
A141N	0.447 ± 0.15
A141L	1.36 ± 0.4
A141I	0.758 ± 0.28
A141R	1.02 ± 0.51
A141F	1.77 ± 0.25
A141G	1.28 ± 0.34
A141Q	1.24 ± 0.65
A141H	1.12 ± 1.5
A141C	0.959 ± 0.26
A141D	1.25 ± 0.18
A141M	0.533 ± 0.15
A141K	1.19 ± 0.16
A134V	1.34 ± 0.35
A134S	1.06 ± 0.4
A134R	0.538 ± 0.66
A134G	-0.0179 ± 0.3
A134W	0.124 ± 0.67
A134P	-0.0505 ± 0.32
A134Q	1.1 ± 0.12
A134T	-0.16 ± 0.69
A134K	-3.51 ± 0.36
A134D	0.263 ± 0.28

Variant	AIRE transcriptional activation functional score
A134F	1.29 ± 0.44
A134N	1.63 ± 0.051
A134E	-0.378 ± 0.22
A134M	-0.832 ± 0.19
A134Y	0.952 ± 0.67
A134I	1.43 ± 0.48
A134L	1.11 ± 0.76
A134C	1.35 ± 0.81
A134H	0.548 ± 0.16
E137W	1.59 ± 0.4
E137S	0.539 ± 0.22
E137H	0.409 ± 0.23
E137K	0.00389 ± 0.35
E137G	0.593 ± 0.29
E137T	0.166 ± 0.34
E137V	0.84 ± 0.52
E137M	2.33 ± 0.18
E137Y	1.71 ± 0.65
E137C	0.524 ± 0.46
E137L	0.822 ± 0.58
E137N	0.174 ± 0.43
E137I	0.97 ± 0.44
E137D	1.23 ± 0.18
E137Q	-0.415 ± 0.88

Variant	AIRE transcriptional activation functional score
E137F	1.36 ± 0.29
E137R	0.377 ± 0.72
E137A	1.36 ± 0.64
E137P	1.18 ± 0.076
K133I	-0.178 ± 0.14
K133M	-0.0607 ± 0.074
K133C	0.0795 ± 0.2
K133T	0.351 ± 0.38
K133N	-0.0115 ± 0.23
K133V	-0.175 ± 0.33
K133Q	-0.167 ± 0.29
K133F	-0.0481 ± 0.26
K133E	0.0731 ± 0.23
K133D	0.12 ± 0.12
K133L	-0.0606 ± 0.37
K133R	1.43 ± 0.42
K133G	0.153 ± 0.19
K133S	0.436 ± 0.32
K133H	0.287 ± 0.57
K133A	-0.0211 ± 0.57
K133P	0.469 ± 0.58
K133W	-0.155 ± 0.076
K133Y	-0.0322 ± 0.21
A140D	1.07 ± 0.13

Variant	AIRE transcriptional activation functional score
A140H	1.37 ± 0.089
A140T	1.12 ± 0.5
A140M	0.337 ± 0.19
A140W	1.46 ± 0.073
A140R	1.14 ± 0.49
A140S	1.02 ± 0.59
A140N	0.714 ± 0.56
A140I	1.46 ± 0.72
A140G	1.12 ± 0.45
A140V	1.35 ± 0.35
A140E	1.36 ± 0.42
A140P	1.56 ± 0.47
A140L	1.13 ± 0.7
A140Y	1.38 ± 0.29
A140F	1.71 ± 0.3
A140Q	0.908 ± 0.25
A140K	0.768 ± 0.51
A140C	0.626 ± 0.46
R139V	0.965 ± 0.42
R139E	0.912 ± 0.071
R139Q	1.35 ± 0.3
R139I	1 ± 0.39
R139S	0.893 ± 0.49
R139Y	1.25 ± 0.39

Variant	AIRE transcriptional activation functional score
R139C	0.377 ± 0.063
R139N	0.522 ± 0.21
R139K	1.37 ± 0.33
R139G	1.2 ± 0.28
R139P	0.0776 ± 0.31
R139M	1.04 ± 0.11
R139T	0.641 ± 0.57
R139W	1.54 ± 0.1
R139D	0.568 ± 0.48
R139L	1.19 ± 0.29
R139A	-0.0134 ± 0.85
R139H	0.679 ± 0.53
R139F	1.51 ± 0.4
R132Y	0.288 ± 0.26
S135I	1.2 ± 0.12
S135G	-0.37 ± 0.43
S135R	0.761 ± 0.25
S135E	1.38 ± 0.099
S135N	0.753 ± 0.095
S135Q	1.13 ± 0.11
S135W	1.79 ± 0.1
S135A	2.31 ± 0.099
S135L	1.04 ± 0.4
S135T	2.07 ± 0.43

Variant	AIRE transcriptional activation functional score
S135C	0.747 ± 0.12
S135H	1.48 ± 0.27
S135M	-0.155 ± 0.32
S135Y	0.884 ± 0.32
S135V	0.924 ± 0.21
S135F	1.13 ± 0.4
S135P	0.181 ± 0.27
S135D	1.56 ± 0.28
S135K	1.43 ± 0.35
E136V	0.704 ± 0.44
E136T	0.767 ± 0.32
E136N	0.529 ± 0.18
E136A	1.16 ± 0.46
E136K	-0.163 ± 0.49
E136S	0.919 ± 0.38
E136G	0.816 ± 0.32
E136I	0.792 ± 0.39
E136M	0.441 ± 0.041
E136P	1.91 ± 0.84
E136C	1.22 ± 0.3
E136D	0.541 ± 0.62
E136Y	1.32 ± 0.34
E136Q	1.45 ± 0.34
E136R	-0.203 ± 0.43

Variant	AIRE transcriptional activation functional score
E136H	1.15 ± 0.23
E136W	1 ± 0.072
E136F	0.605 ± 0.16
E136L	0.669 ± 0.26
A138Y	1.36 ± 0.22
A138I	1.06 ± 0.48
A138V	1.1 ± 0.37
A138G	0.96 ± 0.49
A138E	1.11 ± 0.33
A138P	0.857 ± 0.26
A138M	2.84 ± 0.08
A138F	1.13 ± 0.21
A138D	0.727 ± 0.48
A138Q	0.334 ± 0.66
A138N	0.5 ± 0.94
A138C	1.51 ± 0.25
A138T	0.99 ± 0.51
A138W	1.66 ± 0.094
A138K	0.889 ± 0.063
A138L	1.27 ± 0.59
A138R	1.19 ± 0.23
A138H	0.328 ± 0.22
A138S	0.847 ± 0.28
